The supplement of paper PMC11246515
± gives the standard deviation of the averaged measurements.

Test: total protein half-life in vivo (active degradation + dilution); higher = more stable protein
[1] = E. coli NCM3722 delta-clpP delta-lon delta-hslV, growth: N-lim chemostat, doubling time 6 h
[2] = E. coli NCM3722 delta-clpP, growth: N-lim chemostat, doubling time 6 h
[3] = E. coli NCM3722 delta-hslV, growth: N-lim chemostat, doubling time 6 h
[4] = E. coli NCM3722 delta-lon, growth: N-lim chemostat, doubling time 6 h
[5] = E. coli NCM3722 delta-smpB, growth: N-lim chemostat, doubling time 6 h
[6] = wild type E. coli NCM3722, growth: C-lim chemostat, doubling time 3 h
[7] = wild type E. coli NCM3722, growth: C-lim chemostat, doubling time 6 h
[8] = wild type E. coli NCM3722, growth: C-lim chemostat, doubling time 12 h
[9] = wild type E. coli NCM3722, growth: N-lim chemostat, doubling time 6 h
[10] = wild type E. coli NCM3722, growth: N-lim chemostat, doubling time 12 h
[11] = wild type E. coli NCM3722, growth: P-lim chemostat, doubling time 6 h
[12] = wild type E. coli NCM3722, growth: P-lim chemostat, doubling time 12 h

| Sequence | total protein half-life in vivo [1] [h] | total protein half-life in vivo [2] [h] | total protein half-life in vivo [3] [h] | total protein half-life in vivo [4] [h] | total protein half-life in vivo [5] [h] | total protein half-life in vivo [6] [h] | total protein half-life in vivo [7] [h] | total protein half-life in vivo [8] [h] | total protein half-life in vivo [9] [h] | total protein half-life in vivo [10] [h] | total protein half-life in vivo [11] [h] | total protein half-life in vivo [12] [h] |
| --- | --- | --- | --- | --- | --- | --- | --- | --- | --- | --- | --- | --- |
| MSSLPVAAVLPELLTALDCAPQVLLSAPTGAGKSTWLPLQLLAHPGINGKIILLEPRRLAARNVAQRLAELLNEKPGDTVGYRMRAQNCVGPNTRLEVVTEGVLTRMIQRDPELSGVGLVILDEFHERSLQADLALALLLDVQQGLRDDLKLLIMSATLDNDRLQQMLPEAPVVISEGRSFPVERRYLPLPAHQRFDDAVAVATAEMLRQESGSLLLFLPGVGEIQRVQEQLASRIGSDVLLCPLYGALSLNDQRKAILPAPQGMRKVVLATNIAETSLTIEGIRLVVDCAQERVARFDPRTGLTRLITQRVSQASMTQRAGRAGRLEPGISLHLIAKEQAERAAAQSEPEILQSDLSGLLMELLQWGCSDPAQMSWLDQPPVVNLLAAKRLLQMLGALEGERLSAQGQKMAALGNDPRLAAMLVSAKNDDEAATAAKIAAILEEPPRMGNSDLGVAFSRNQPAWQQRSQQLLKRLNVRGGEADSSLIAPLLAGAFADRIARRRGQDGRYQLANGMGAMLDANDALSRHEWLIAPLLLQGSASPDARILLALLVDIDELVQRCPQLVQQSDTVEWDDAQGTLKAWRRLQIGQLTVKVQPLAKPSEDELHQAMLNGIRDKGLSVLNWTAEAEQLRLRLLCAAKWLPEYDWPAVDDESLLAALETWLLPHMTGVHSLRGLKSLDIYQALRGLLDWGMQQRLDSELPAHYTVPTGSRIAIRYHEDNPPALAVRMQEMFGEATNPTIAQGRVPLVLELLSPAQRPLQITRDLSDFWKGAYREVQKEMKGRYPKHVWPDDPANTAPTRRTKKYS | 5.57 ± 0.07 | 5.56 ± 0.99 | 3.91 ± 0.046 | 4.29 ± 0.098 | 4.21 ± 0.25 | 2.8 ± 0.11 | 4.648 ± 0.041 | 9.65 ± 3.8 | 3.97 ± 0.26 | 6.433 ± 0.061 | 4.905 ± 0.044 | 9.09 ± 0.45 |
| MSSMTTTDNKAFLNELARLVGSSHLLTDPAKTARYRKGFRSGQGDALAVVFPGSLLELWRVLKACVTADKIILMQAANTGLTEGSTPNGNDYDRDVVIISTLRLDKLHVLGKGEQVLAYPGTTLYSLEKALKPLGREPHSVIGSSCIGASVIGGICNNSGGSLVQRGPAYTEMSLFARINEDGKLTLVNHLGIDLGETPEQILSKLDDDRIKDDDVRHDGRHAHDYDYVHRVRDIEADTPARYNADPDRLFESSGCAGKLAVFAVRLDTFEAEKNQQVFYIGTNQPEVLTEIRRHILANFENLPVAGEYMHRDIYDIAEKYGKDTFLMIDKLGTDKMPFFFNLKGRTDAMLEKVKFFRPHFTDRAMQKFGHLFPSHLPPRMKNWRDKYEHHLLLKMAGDGVGEAKSWLVDYFKQAEGDFFVCTPEEGSKAFLHRFAAAGAAIRYQAVHSDEVEDILALDIALRRNDTEWYEHLPPEIDSQLVHKLYYGHFMCYVFHQDYIVKKGVDVHALKEQMLELLQQRGAQYPAEHNVGHLYKAPETLQKFYRENDPTNSMNPGIGKTSKRKNWQEVE | 6.43 ± 0.27 | 6.81 ± 1 | 5.82 ± 0.25 | 5.72 ± 0.37 | 5.06 ± 0.94 | 1.97 ± 0.11 | 4.28 ± 0.33 | 10 ± 0.23 | 5.98 ± 0.4 | 10.2 ± 0.66 | 4.92 ± 0.78 | 9.79 ± 1.1 |
| MSSNFRHQLLSLSLLVGIAAPWAAFAQAPISSVGSGSVEDRVTQLERISNAHSQLLTQLQQQLSDNQSDIDSLRGQIQENQYQLNQVVERQKQILLQIDSLSSGGAAAQSTSGDQSGAAASTTPTADAGTANAGAPVKSGNANTDYNAAIALVQDKSRQDDAMVAFQNFIKNYPDSTYLPNANYWLGQLNYNKGKKDDAAYYFASVVKNYPKSPKAADAMFKVGVIMQDKGDTAKAKAVYQQVISKYPGTDGAKQAQKRLNAM | 5.65 ± 0.36 |  | 5.26 ± 0.17 | 5.96 ± 0.72 | 5.27 ± 1.5 |  | 6.4 ± 1 | 8.8 ± 1.9 | 5.61 ± 0.1 | 11.3 ± 0.16 | 5.31 ± 1.9 | 11.6 ± 0.52 |
| MSSQYLRIFQQPRSAILLILGFASGLPLALTSGTLQAWMTVENIDLKTIGFFSLVGQAYVFKFLWSPLMDRYTPPFFGRRRGWLLATQILLLVAIAAMGFLEPGTQLRWMAALAVVIAFCSASQDIVFDAWKTDVLPAEERGAGAAISVLGYRLGMLVSGGLALWLADKWLGWQGMYWLMAALLIPCIIATLLAPEPTDTIPVPKTLEQAVVAPLRDFFGRNNAWLILLLIVLYKLGDAFAMSLTTTFLIRGVGFDAGEVGVVNKTLGLLATIVGALYGGILMQRLSLFRALLIFGILQGASNAGYWLLSITDKHLYSMGAAVFFENLCGGMGTSAFVALLMTLCNKSFSATQFALLSALSAVGRVYVGPVAGWFVEAHGWSTFYLFSVAAAVPGLILLLVCRQTLEYTRVNDNFISRTAYPAGYAFAMWTLAAGVSLLAVWLLLLTMDALDLTHFSFLPALLEVGVLVALSGVVLGGLLDYLALRKTHLT [P0AE16] |  | 5.97 |  |  | 6.24 |  | 4.45 | 4.64 | 6.55 | 12.4 ± 4.7 |  | 10.3 ± 1.2 |
| MSSRNNPARVAIVMGSKSDWATMQFAAEIFEILNVPHHVEVVSAHRTPDKLFSFAESAEENGYQVIIAGAGGAAHLPGMIAAKTLVPVLGVPVQSAALSGVDSLYSIVQMPRGIPVGTLAIGKAGAANAALLAAQILATHDKELHQRLNDWRKAQTDEVLENPDPRGAA [P0AG18] | 5.15 ± 0.26 | 4.94 ± 0.41 | 4.8 ± 0.085 | 4.93 ± 0.088 | 4.71 ± 0.3 | 2.77 ± 0.034 | 5.47 ± 0.46 | 9.5 ± 0.76 | 4.67 ± 0.13 | 6.68 ± 0.46 | 5.68 ± 0.13 | 10.9 ± 0.31 |
| MSSRVLTPDVVGIDALVHDHQTVLAKAEGGVVAVFANNAPAFYAVTPARLAELLALEEKLARPGSDVALDDQLYQEPQAAPVAVPMGKFAMYPDWQPDADFIRLAALWGVALREPVTTEELASFIAYWQAEGKVFHHVQWQQKLARSLQIGRASNGGLPKRDVNTVSEPDSQIPPGFRG [P0A8J2] | 4.71 ± 0.31 | 4.26 | 1.78 ± 0.14 |  |  |  | 3.49 | 5.15 ± 0.3 |  | 2.93 ± 0.94 | 2.68 ± 0.39 | 5.6 ± 0.28 |
